Experimental findings from patent US6485936 are described below.

Test [1] concerns the target GST-HSF2N96 (human) (UniProt Q03933). Nature of the test: GST pull-down; 35S-labeled in vitro translated protein on GST-fusion glutathione-Sepharose, SDS-PAGE, autoradiography, BAS2000 quantification.
Test [2] addresses GST-HSF1N101 (human) (UniProt Q00613). The description is as above.

Sequence of GST-HSF2N96 (human) (Q03933 96-536): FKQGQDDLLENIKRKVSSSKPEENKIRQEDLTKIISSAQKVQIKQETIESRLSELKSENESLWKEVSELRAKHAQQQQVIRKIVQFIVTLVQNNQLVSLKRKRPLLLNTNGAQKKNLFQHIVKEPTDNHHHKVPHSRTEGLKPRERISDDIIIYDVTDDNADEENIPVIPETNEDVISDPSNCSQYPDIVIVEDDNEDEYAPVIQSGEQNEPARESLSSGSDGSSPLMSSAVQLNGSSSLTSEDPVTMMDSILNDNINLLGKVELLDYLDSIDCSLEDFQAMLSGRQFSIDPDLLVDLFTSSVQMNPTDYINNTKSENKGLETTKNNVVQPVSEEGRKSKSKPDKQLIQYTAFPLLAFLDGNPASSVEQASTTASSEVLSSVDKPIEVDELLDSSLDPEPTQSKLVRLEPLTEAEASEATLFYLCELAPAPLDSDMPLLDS
Sequence of GST-HSF1N101 (human) (Q00613 101-529): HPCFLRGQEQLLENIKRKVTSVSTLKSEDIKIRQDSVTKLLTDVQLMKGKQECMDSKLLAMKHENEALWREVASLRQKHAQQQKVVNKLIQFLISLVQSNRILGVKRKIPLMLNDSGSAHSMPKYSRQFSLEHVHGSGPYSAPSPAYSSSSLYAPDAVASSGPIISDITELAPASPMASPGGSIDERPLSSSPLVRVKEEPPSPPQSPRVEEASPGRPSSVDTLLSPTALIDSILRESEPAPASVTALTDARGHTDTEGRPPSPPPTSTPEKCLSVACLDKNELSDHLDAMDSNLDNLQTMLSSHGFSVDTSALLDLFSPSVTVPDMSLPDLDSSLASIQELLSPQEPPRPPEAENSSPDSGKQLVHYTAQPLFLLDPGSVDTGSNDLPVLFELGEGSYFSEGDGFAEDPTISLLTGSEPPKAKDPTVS

B1: HSF2 binding protein (HSF2BP), in vitro translated, 35S-methionine-labeled (protein)
chain: MGEAGAAEEACRHMGTKEEFVKVRKKDLERLTTEVMQIRDFLPRILNGEVLESFQKLKIVEKNLERKEQELEQLKMDCEHFKARLETVQADNIREKKEKLALRQQLNEAKQQLLQQAEYCTEMGAAACTLLWGVSSSEEVVKAILGGDKALKFFSITGQTMESFVKSLDGDVQELDSDESQFVFALAGIVTNVAAIACGREFLVNSSRVLLDTILQLLGDLKPGQCTKLKVLMLMSLYNVSINLKGLKYISESPGFIPLLWWLLSDPDAEVCLHVLRLVQSVVLEPEVFSKSASEFRSSLPLQRILAMSKSRNPRLQTAAQELLEDLRTLEHNV
modifications: 35S-methionine label
As to B1, the proportion of bound HSF2BP (% of the level of input) (% of the level of input) turned out to be 7.9 in test [1] and 8.5 in test [2].
